In paper PMC3021122:

Key:
[1] = target: T1, Shigella flexneri Spa15 (residues 1-133), N-terminal His tag, unlabelled (Shigella flexneri), P35530; experiment: multi-angle laser light scattering; co-purified Spa15:IpgB1 complex; data not shown; settings: remark: other sources report otherwise
T1 chain: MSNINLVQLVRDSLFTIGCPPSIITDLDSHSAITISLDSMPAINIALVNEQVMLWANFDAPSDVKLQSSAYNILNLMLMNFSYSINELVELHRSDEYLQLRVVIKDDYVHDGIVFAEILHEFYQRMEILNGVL

[2] = target: T1, Shigella flexneri Spa15 (residues …); experiment: SEC; HiLoad 26/60 Superdex 75, 20 mM Tris-HCl (pH 7.5), 150 mM NaCl; Spa15 alone; settings: remark: other sources report otherwise

B1: Shigella flexneri Spa15 (residues 1-133), N-terminal His tag, unlabelled, P35530 1-133 (natural protein)
chain: MSNINLVQLVRDSLFTIGCPPSIITDLDSHSAITISLDSMPAINIALVNEQVMLWANFDAPSDVKLQSSAYNILNLMLMNFSYSINELVELHRSDEYLQLRVVIKDDYVHDGIVFAEILHEFYQRMEILNGVL
stoichiometry N [1]: 2 | stoichiometry N [2]: 2
